B1: Hammerhead Ribozyme (parent)
chain: ACCGGAUGUGCUUUCCGGUCUGAUGAGUCCGUGAGGACGAAACAG

Variants of: B1
Assay: self-cleavage, relative activity (ratio to wild type); higher = more cleavage; co-transcriptional

In order of rising self-cleavage:
1. ACCCGAUGUGCUUUCCGGUCUGGUGAGUCCGUGAGGACGAAACAG  0.225
2. ACCGGAUGUGCUUUCCCGUCCGAUGAGUCCGUGAGGACGAAACAG  0.275
3. ACCGGAUGUGCUUUCCGGUCUGAUGAGUGCGUGAGGACGAAAGAG  0.275
4. ACCGGAUGUGCUUUCCGGUCUGAUUAGUCAGUGAGGACGAAACAG  0.293
5. ACCGGAUGUGCUUUCCGGUCUGAUGAGUCCGUGAGAACCAAACAG  0.306
6. ACCGGAUGAGCUUUCCGGUCUUAUGAGUCCGUGAGGACGAAACAG  0.311
7. ACCGGAUGUGCUUUCCGGUCUGAUAAUUCCGUGAGGACGAAACAG  0.314
8. ACCGGAUGUGCUUUCCCGUCUGCUGAGUCCGUGAGGACGAAACAG  0.327
9. ACCGGAUGUGCUUUCCGGUCUGAUGAGUCCGUGGGGACGAAUCAG  0.329
10. AGCGGAUGUGCUUUCCGGUCGGAUGAGUCCGUGAGGACGAAACAG  0.331
11. ACCGGAUGUGCUUUCGGGUCUUAUGAGUCCGUGAGGACGAAACAG  0.334
12. ACCGGAUGUGCUUUCCGGUCUGAUGAGUCCGUGAGUACGAAACCG  0.339
13. ACCGGAUGUGCUUUCCGGUCUUAUGAGUCUGUGAGGACGAAACAG  0.344
14. AGCGGAUGUGCUUUCCGGUCUGAUGAGUCCGUGUGGACGAAACAG  0.347
15. ACCGGAUGCGCUUUCCGGUCUGAUGAGUCCGUGAGGACGAACCAG  0.351
16. ACCGGAUGUGCUUUCCGGUCUGAUGCGUCCGUGAGUACGAAACAG  0.355
17. ACCGGAUGUGCUUUCCGGUCUGAUUAGUCCGUGAGAACGAAACAG  0.365
18. AUCGGAUGUGCUUUCCGGACUGAUGAGUCCGUGAGGACGAAACAG  0.365
19. ACCGGAUGUGCUUUCCGGUCCGAUGAGUACGUGAGGACGAAACAG  0.37
20. ACUGGAUGUGCUUUCCGGUCUGAUGAGUCCGUGAGGACGAAUCAG  0.38
21. ACCGGAUGUGCUUUCCGUUCUGAUGAGUCCGUGAGGACGAUACAG  0.385
22. ACCUGAUGAGCUUUCCGGUCUGAUGAGUCCGUGAGGACGAAACAG  0.395
23. ACCGGAUGUGCUUUCCUGCCUGAUGAGUCCGUGAGGACGAAACAG  0.397
24. ACCGGAUGGGCUUUCCGUUCUGAUGAGUCCGUGAGGACGAAACAG  0.4
25. ACCGGAUGUGCCUUCCGGUCUGAUGAGUCCGUGAGGACAAAACAG  0.403
26. ACCGGAUGUGCUUUACGGUCUGAUGAGUCCGUGAGAACGAAACAG  0.407
27. ACCGGAUGUGCUUUCCGGUUUGAUGACUCCGUGAGGACGAAACAG  0.409
28. ACCGGAUGUGGUUUCCGGGCUGAUGAGUCCGUGAGGACGAAACAG  0.42
29. ACCGGAUGUGCUUUCCGGUCUGAUGAUUCCUUGAGGACGAAACAG  0.474
30. ACCGGAUGUGCUUUCCGGUAUGAUGAGUCCUUGAGGACGAAACAG  0.475
31. ACCGGUUGUGCUUUCCGGUCUGAUGAGUACGUGAGGACGAAACAG  0.475
32. ACCGGAUGUGCUUUCCGGUCUGAUGAGUUCGUGAGGAAGAAACAG  0.485
33. ACCGGAUGUGCUUUCCGGUCUGAUGCGUCCGUGACGACGAAACAG  0.489
34. ACCAGAUGUGCUUUCCGGUCUGAUGAGUCCGUGAGGCCGAAACAG  0.491
35. ACCGGAUGUGCUUUCCGGUAUGAUGAGUCUGUGAGGACGAAACAG  0.498
36. ACCGGAUGUGCUUUCCGGUCUGAUGAGUCUGUGAGUACGAAACAG  0.498
37. ACCGGCUGUGCUUUCCGGUCUGAUGAGUCUGUGAGGACGAAACAG  0.51
38. ACCGAAUGUGCUUUCCGGUCUGAUGAGUCCGUGAGGACGAAACAC  0.554
39. ACCGGAUGUGCUUUCAGGUCUGAUGAGUCCGUGAGGACGAAACCG  0.563
40. ACCGGAUGUGCUUUCCGGUUUGAUGAGUCCGUGAGGGCGAAACAG  0.565
41. ACCGGAUGUGCUUUCCGGUAUGAGGAGUCCGUGAGGACGAAACAG  0.594
42. ACCGGAUGUGCUUUUCGGUCAGAUGAGUCCGUGAGGACGAAACAG  0.595
43. ACCGGAUGUGCUUUCCGGUCUGAUGUGUCCGUUAGGACGAAACAG  0.659
44. ACCGGAUGUGCUUUCCUGUCUGAUGAGUCCGUGAGGAUGAAACAG  0.758
45. ACCGGAUGUGCUGUCAGGUCUGAUGAGUCCGUGAGGACGAAACAG  0.765
46. ACCGGAUGUUCUUUCCGGUCUGAUGAGUCCGUGAGGUCGAAACAG  0.768
47. ACCGGAUGUGCUUUCCGGUCUGAAGAGUCCGUGAUGACGAAACAG  0.791
48. ACCGGAUGUGCUUUCCGGUCUGAUGAGUCCGUAAGGAGGAAACAG  0.854
49. ACCGUAUGUGCUUUCCGGUCUGAUGAGUCCGUAAGGACGAAACAG  0.913
50. ACCGGAUGUGCUUUCCGGUCUGAUGAGUUCGUUAGGACGAAACAG  0.92
51. ACCGGAUGUGCUUUCCGGUCUGAUGAGUUCGUAAGGACGAAACAG  0.959
52. ACCGGAUGUGCUUUCGGGUCUGAUGAGUCCGAGAGGACGAAACAG  1.03
53. ACCGUAUGUGCUUUCCGGUCUGAUGAGUCCGUUAGGACGAAACAG  1.06
54. ACCGGAUGGGCUUUCCGGUCUGAUGAGUCCGGGAGGACGAAACAG  1.07
55. ACCGGAUGUGCUUUCCGGUCUGAUGAGUUCGUCAGGACGAAACAG  1.09
56. ACCGGAUGUGCUGUCCGGUCUGAAGAGUCCGUGAGGACGAAACAG  1.36
57. ACUGUAUGUGCUUUCCGGUCUGAUGAGUCCGUGAGGACGAAACAG  1.4
